The test system of one data set is intestinal peptidases. The data set is described as follows: metabolic stability BBMV assay (degradation by intestinal peptidases). As to conditions: 37° C. The format is in vitro ADME, rat. On the procedure:
The enzymatic reaction is performed similar to what described in Ovadia et al. (2009, Bioorg Med Chem 18, 580-589): 2 mM stock solutions of the tested compounds are diluted with serum or purified brush border membrane vesicles (BBMVs) solution to a final concentration of 0.5 mM. During incubation at 37° C. samples are taken for a period of 90 minutes. The enzymatic reaction is stopped by adding 1:1 v/v of ice cold acetonitrile and centrifuge (4000 g, 10 min) before analysis.
The BBMVs are prepared from combined duodenum, jejunum, and upper ileum (male Wistar rats) by a Ca++ precipitation method (Gante, J., Angew Chem Int Edit 1994, 33, (17), 1699-1720; Hess et al., ibid). Purification of the BBMVs is assayed using GGT, LAP and alkaline phosphatase as membrane enzyme markers.
M3D-1 was tested for metabolic stability to degradation by intestinal peptidases using the BBMV assay described above. The linear CCR2b(61-67) peptide was used as a control.

The subject of the next data set is cells. The data set is described as follows: in vitro cytotoxicity assay. The class given is cell-based.
The next data set addresses T1, CXCR4 (Homo sapiens, UniProt P61073).
T1 construct: endogenous in cells; host or cells: THP-1 (inferred; b171 says only 'cells')
The data set is described as follows: transwell migration assay, SDF-1 (CXCL12) induced migration. The class given is cell-based. Particulars: cells migrating towards SDF-1; FIG. 7 crosshatch. The source says:
(§1) The simple transwell migration assay (Mandelboim, O. Protocol Exchange (2006) doi:10.1038/nprot.2006.210) was used for evaluating the chemotactic migration in the presence of M3D-1. M3D-1 inhibited THP-1 cells migration towards MCP-1 (FIG. 7 stripes).
SDF-1 is known to have strong chemotactic effects following specific interaction with the receptor CXCR4 (Bleul et al., ibid).

The target in the next data set is T2, CCR2 (Homo sapiens, UniProt P41597).
T2 construct: endogenous in cells; host or cells: THP-1
T2 sequence (P41597 1-360 isoform P41597-2): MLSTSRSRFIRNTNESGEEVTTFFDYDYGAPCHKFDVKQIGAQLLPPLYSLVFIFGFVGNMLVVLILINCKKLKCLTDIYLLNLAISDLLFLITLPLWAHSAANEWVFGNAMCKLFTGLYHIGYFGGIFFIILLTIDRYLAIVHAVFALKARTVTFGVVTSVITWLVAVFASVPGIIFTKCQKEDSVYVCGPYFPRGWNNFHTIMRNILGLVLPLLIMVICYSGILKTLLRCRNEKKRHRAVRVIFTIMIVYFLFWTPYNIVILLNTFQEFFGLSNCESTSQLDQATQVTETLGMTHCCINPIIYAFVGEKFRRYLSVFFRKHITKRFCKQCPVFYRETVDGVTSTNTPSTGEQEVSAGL
Briefly: transwell migration assay with MCP-1 as chemoattractant (THP-1 cells). The format is cell-based. On the procedure: A transwell migration assay (Bignold, L. P., J Immunol Methods 1987, 105, (2), 275-80) was performed using MCP-1 as a chemoattractant. The chemokine MCP-1 reacts only with the chemokine receptors CCR2 and CCR4. […] In this experiment, THP-1 cells were placed in the upper well of the trans-migration plate and specific migration was induced by placing MCP-1 in the lower well. The cells were allowed to migrate spontaneously or toward the chemokine, and counted after migration. To evaluate the effect of hCCR2b(61-67) on MCP-1-induced migration, the peptide (10 μM) was incubated with the cells and the number of migrating cells in the lower wells were determined.
as §1

The subject of the next data set is THP-1 cells. Briefly: spontaneous migration of THP-1 cells without additional chemokines. The format is cell-based, human. As to conditions: FIG. 7 dots. The protocol: THP-1 cells spontaneous migration was evaluated without additional chemokines.

Starred links: 1 amine or outer side, 2 acyl side, 3 side chain; linkers in the order of their positions; H or OH if unused. Positions of bridges follow the written chain, without caps; N, C: chain ends. Non-standard residues stand in square brackets, D forms with d. Residues, ends and D or L forms follow the SMILES beside them. No end group written: not given here. BU = not defined here; CO = O=C([*:1])[*:2]

T1 sequence (P61073 whole entry): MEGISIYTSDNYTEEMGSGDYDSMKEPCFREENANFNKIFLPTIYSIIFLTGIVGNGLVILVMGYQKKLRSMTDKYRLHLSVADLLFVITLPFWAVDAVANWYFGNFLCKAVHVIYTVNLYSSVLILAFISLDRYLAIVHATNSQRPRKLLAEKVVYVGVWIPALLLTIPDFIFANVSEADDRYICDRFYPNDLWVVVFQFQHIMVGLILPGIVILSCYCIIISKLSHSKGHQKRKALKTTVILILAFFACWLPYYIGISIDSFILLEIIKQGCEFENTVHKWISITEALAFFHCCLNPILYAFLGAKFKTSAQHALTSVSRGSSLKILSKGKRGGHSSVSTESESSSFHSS

For the molecule `CC[C@H](C)[C@H](NC(=O)[C@H](CC(C)C)NC(=O)[C@@H](NC(=O)[C@@H](NC(=O)[C@H](CC(C)C)NC(=O)[C@@H](N)CCSC)C(C)C)C(C)C)C(=O)N[C@@H](CC(C)C)C(=O)O` [hCCR2b(61-67), MLVVLIL] (H-MLVVLIL-OH; N-terminus and C-terminus assumed), the “degradation by intestinal peptidases” value in the data set on intestinal peptidases (FIG. 9, linear control peptide) is “completed degraded after about one hour”.

Regarding “M-L-V-BU-L-I-BU-NH2 (MLV[BU]LI[BU]-NH2; bridge 4-7 via CO; reading uncertain; also: printed as M-L-V-BU-L-I-BU-NH2) [M3D-1]”, the “time stable to degradation by intestinal peptidases” value with intestinal peptidases (FIG. 9) is “at least 3 hours”. The toxicity to cells result in the data set with cells was “not toxic to cells”. For the same molecule, the “inhibition of SDF-1 induced migration” value with CXCR4 was “no significant inhibition”. Also, the “inhibition of MCP-1-mediated migration” value with CCR2 (THP-1 cells migrating towards MCP-1, concentration not given, FIG. 2 / FIG. 7) is “inhibited”. The “concentration range blocking specific CCR2 chemokine mediated cell migration” value with CCR2 (summary statement in the description) was “low micro-molar range”. Besides, the “number of cells that migrate in the absence of chemokine, with or without peptide” value in the data set on THP-1 cells is reported as “no significant difference”.

(Values after US20140336127A1, “Stabilized Peptide Helices For Inhibiting Dimerization Of Chemokine C Motif Receptor 2 (CCR2)” (Yissum Research Development Company of the Hebrew …, priority 2012, published 2014).)
